T1: His10/Avi Cyno IL-33 (cynomolgus monkey)
T1 construct: also called Cynomolgus 10His Avitag IL-33; biotinylated His Avi cynomolgus IL-33
T1 chain: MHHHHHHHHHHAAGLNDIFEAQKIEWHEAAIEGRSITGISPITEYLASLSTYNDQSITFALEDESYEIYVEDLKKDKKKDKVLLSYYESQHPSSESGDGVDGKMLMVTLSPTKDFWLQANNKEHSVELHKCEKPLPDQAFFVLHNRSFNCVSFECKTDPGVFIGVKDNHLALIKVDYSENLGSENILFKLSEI

T2: Human IL-33 Flag®His (human)
T2 chain: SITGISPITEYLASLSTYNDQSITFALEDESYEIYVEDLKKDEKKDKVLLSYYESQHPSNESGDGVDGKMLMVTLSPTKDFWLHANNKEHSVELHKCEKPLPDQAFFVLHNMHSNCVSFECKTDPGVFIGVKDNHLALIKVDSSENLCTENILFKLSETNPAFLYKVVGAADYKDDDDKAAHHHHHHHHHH

T3: Cynomolgus IL-33 Flag®His (cynomolgus monkey)
T3 construct: C-terminal FLAG 10xHis tag, E. coli; also called Mature Cynomolugus IL-33; cyno IL-33 FH
T3 chain: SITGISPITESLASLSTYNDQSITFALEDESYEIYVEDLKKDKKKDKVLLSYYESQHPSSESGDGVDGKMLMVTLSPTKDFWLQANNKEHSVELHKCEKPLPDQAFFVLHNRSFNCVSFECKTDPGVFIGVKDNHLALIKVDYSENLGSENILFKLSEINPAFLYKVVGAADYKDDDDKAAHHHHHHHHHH

T4: ST2 on human umbilical vein endothelial cells (human, UniProt Q01638 19-556)
T4 sequence (looked up): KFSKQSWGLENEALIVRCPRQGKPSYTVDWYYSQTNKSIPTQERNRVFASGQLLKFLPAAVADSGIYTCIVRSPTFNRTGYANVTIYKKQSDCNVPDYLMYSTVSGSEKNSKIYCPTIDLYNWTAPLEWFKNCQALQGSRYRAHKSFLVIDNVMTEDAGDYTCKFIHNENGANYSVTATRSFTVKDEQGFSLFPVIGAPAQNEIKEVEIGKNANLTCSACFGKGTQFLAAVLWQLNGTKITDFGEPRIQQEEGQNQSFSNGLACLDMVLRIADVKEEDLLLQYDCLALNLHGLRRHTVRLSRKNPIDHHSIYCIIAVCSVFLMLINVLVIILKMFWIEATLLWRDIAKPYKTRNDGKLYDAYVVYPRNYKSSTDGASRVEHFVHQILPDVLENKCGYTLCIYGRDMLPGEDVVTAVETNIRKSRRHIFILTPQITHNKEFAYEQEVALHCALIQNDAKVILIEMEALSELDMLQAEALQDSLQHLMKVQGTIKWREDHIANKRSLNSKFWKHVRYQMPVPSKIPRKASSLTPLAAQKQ

B1: 33_640027 scFv (scFv, V domains shown)
VH: EVQLLESGGDLVQPGGSLRLSCAASGFTFSSYAMSWVRQAPGKGLEWVSAIGGSGGSTYYADSVKGRFTISRDNSKNTLYLQMNSLRAEDTAVYYCARDLWMQLWGGGLRYPFGYWGQGTMVTVSS
VL: LPVLTQPPSVSVSPGQKASITCSGERIGDKYAAWYQQKPGQSPILVIYRDTKRPSGIPERFSGSNSGNTATLTISGTQDMDEADYYCQVWDSSTGVFGGGTKVTVL
notes: Single chain Fv
B2: 33_640050 scFv (scFv, V domains shown)
VH: EVQLLESGGGLVQPGGSLRLSCAASGFTFSSYAMSWVRQAPGKGLEWVSAISGSGGSTYYADSVKGRFTISRDNSKNTLYLQMNSLRAEDTAVYYCPRHKFMQLWGGGLRYPFGYWGQGTMVTVSS
VL: SYVLTQPPSVSVSPGQTASITCSGERMGDKYAAWYQQKPGQSPVLVIYQDTKRPSGIPERFSGSNSGNTATLTISGTQAMDEADYYCQVWDSSTGVFGGGTKVTVL
notes: Single chain Fv
B3: 33v20064 scFv (scFv, V domains shown)
VH: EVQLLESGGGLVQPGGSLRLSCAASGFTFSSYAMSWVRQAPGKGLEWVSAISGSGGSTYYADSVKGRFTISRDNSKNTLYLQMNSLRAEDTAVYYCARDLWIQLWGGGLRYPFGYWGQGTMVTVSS
VL: LPVLTQPPSVSVSPGQKASITCSGERMGDKYAAWYQQKPGQSPILVIYQDTKRPSGIPERFSGSNSGNTATLTISGTQDMDEADYYCQVWDSSTGVFGGGTKVTVL
notes: Single chain Fv
B4: IL330125 IgG1 (antibody, V domains shown)
VH: EVQLVQSGAEVKKPGASVTVSCKASGYSFTDYYIHWVRQAPGQGPEWMGWINPNSGVTDFAQKFLGRVTMTRDTSISTAYMELSRLTSDDTALYYCARVAFVYYDSSAFQYWGKGTLVTVSS
VL: LPVLTQPPSVSVSPGQTATITCSADKLGDKYAAWYQQKPGQSPVLVIYQDRKRPSGIPERFSGSNSGNTATLIISGTQAMDEADYYCQAWDSNTGLYVFGTGTKLTVL
notes: Human IgG1, lambda constant
B5: IL330126 IgG1 (antibody, V domains shown)
VH: EVQLVQSGAELKKPGASVKVSCKTSGYSFNTYGISWVRQAPGQGLEWMGWVSGDDGNINYAEKFQGRVAMTTDTSTTTAYMELWSLTSDDTAVYYCARVRRGSGWYKNYHYYMDVWGQGTMVTVSS
VL: QSVLTQPPSVSVSPGQTASVTCSGDRLGDKYASWYQQKPGQSPVLVIYQDRKRPSGIPERFSGSNSGNTATLTISGTQAMDEADYYCQAWDGSTALFGGGTKLTVL
notes: Human IgG1, lambda constant
B6: His10/Avi Human IL33-01 (ligand)
chain: MHHHHHHHHHHAAGLNDIFEAQKIEWHEAAIEGRSITGISPITEYLASLSTYNDQSITFALEDESYEIYVEDLKKDEKKDKVLLSYYESQHPSNESGDGVDGKMLMVTLSPTKDFWLHANNKEHSVELHKCEKPLPDQAFFVLHNMHSNCVSFECKTDPGVFIGVKDNHLALIKVDSSENLCTENILFKLSET
B7: His10/Avi Human IL33-11 (ligand)
chain: MHHHHHHHHHHAAGLNDIFEAQKIEWHEAAIEGRSITGISPITEYLASLSTYNDQSITFALEDESYEIYVEDLKKDEKKDKVLLSYYESQHPSNESGDGVDGKMLMVTLSPTKDFWLHANNKEHSVELHKSEKPLPDQAFFVLHNMHSNCVSFECKTDPGVFIGVKDNHLALIKVDSSENLSTENILFKLSET

Experiments:
[1] = molecular target: B6; assay: HTRF epitope competition, scFv titrated; competitor DyLight labelled 33v20064 IgG
Experimental: (§1) This was followed by the addition of 2.5 microlitres of a solution containing 0.8 nM biotinylated human IL-33-01 combined with 0.75 nM streptavidin cryptate detection (Cisbio International, 610SAKLB) for the human assay or a solution containing 4 nM biotinylated cynomolgus IL-33 combined with 1.5 nM streptavidin cryptate detection (Cisbio International, 610SAKLB) for the cynomolgus assay. All dilutions were performed in assay buffer containing 0.8 M potassium fluoride (VWR, 26820.236) and 0.1% bovine serum albumin (BSA, PAA, K05-013) in Dulbeccos PBS (Invitrogen, 14190185). Assay plates were incubated for 1 hour at room temperature and time resolved fluorescence was read at 620 nm and 665 nm emission wavelengths using an EnVision plate reader (Perkin Elmer). Data were analysed by calculating the 665/620 nm ratio followed by the % Delta F values for each sample. The 665/620 nm ratio was used to correct for sample interference using Equation 1. The % Delta F for each sample was then calculated using Equation 2. The negative control (non-specific binding) was defined by replacing biotinylated IL-33 combined with streptavidin cryptate detection with streptavidin cryptate detection only. The % Delta F values were subsequently used to calculate % specific binding as described in Equation 3.
(§2) Unique scFv were expressed again in bacteria and purified by affinity chromatography (as described in WO01/66754). Purified anti-IL-33 antibody samples were tested for potency of inhibition by competing a dilution series of the purified preparation against DyLight labelled 33v20064 IgG or DyLight labelled 33_640027 IgG for binding to biotinylated His Avi IL33-01, biotinylated His Avi IL33-11 or biotinylated His Avi cynomolgus IL-33. Methods are as described in the previous section.

[2] = molecular target: B7; assay: as above
Experimental: as §1, §2

[3] = molecular target: T1, His10/Avi Cyno IL-33; assay: as above
Experimental: as §1, §2

[4] = molecular target: B6; assay: HTRF epitope competition, scFv titrated; competitor DyLight labelled 33_640027 IgG
[5] = molecular target: B7; assay: as above
[6] = molecular target: T1, His10/Avi Cyno IL-33; assay: as above
[7] = molecular target: T2, Human IL-33 Flag®His; assay: cell-based or functional assay
[8] = molecular target: T2, Human IL-33 Flag®His; assay: HTRF competition, IgG titrated against biotinylated human ST2-Fc
Experimental: The ability of anti-IL-33 antibodies to inhibit the binding of FLAG®-His tagged IL-33 to the ST2 receptor was assessed in a biochemical HTRF® (Homogeneous Time-Resolved Fluorescence, Cisbio International) competition assay, the principles of which are described above.
(§3) Activity of purified IgG preparations were determined by competing a dilution series of the purified IgG against biotinylated human or mouse ST2.Fc for binding to FLAG® His-tagged human, cynomolgus or mouse IL-33.
(§4) Purified or unpurified anti-IL-33 antibody samples were tested for inhibition of FLAG®-His tagged IL-33 binding ST2-Fc by adding 10 microlitres of each dilution of antibody test sample to a 384 well low volume assay plate (Costar 3676). Next, a solution containing 4 nM biotinylated human or mouse ST2-Fc and 20 nM streptavidin XL665 detection (Cisbio International, 611SAXLB) was prepared and 5 microlitres of the mix added to the assay plate. This was followed by the addition of 5 microlitres of a solution containing 1.2 nM FLAG®-His tagged human, cynomolgus or mouse IL-33 combined with 1.72 nM anti-FLAG® cryptate detection (Cisbio International, 61FG2KLB). All dilutions were performed in assay buffer comprised of Dulbeccos PBS (Invitrogen, 14190185) containing 0.8 M potassium fluoride (BDH 103444T) and 0.1% BSA (Sigma A9576). Assay plates were incubated for 2 hour at room temperature followed by 16 hour at 4° C. before reading time resolved fluorescence at 620 nm and 665 nm emission wavelengths using an EnVision plate reader (Perkin Elmer).

[9] = molecular target: T3, Cynomolgus IL-33 Flag®His; assay: HTRF competition: purified IgG titrated against biotinylated human ST2-Fc for FLAG-His cynomolgus IL-33
Experimental: as §3, §4

[10] = molecular target: T4, ST2 on human umbilical vein endothelial …; assay: cell-based or functional assay

Binder | IC50 [1] [nM] | IC50 [2] [nM] | IC50 [3] [nM] | IC50 [4] [nM] | IC50 [5] [nM] | IC50 [6] [nM] | IC50, human ST2 transfected HeLa NFkB luciferase reporter assay [7] [nM] | IC50 [8] [nM] | binding result [9] | IC50 (nM) Untreated, HUVEC NFkB translocation assay [10] [nM]
B1 | 0.4 | 0.6 | 8.2 | 3.8 | 2.9 | 38 | – | – | – | –
B2 | 0.2 | 0.4 | 1.4 | 2.5 | 2.4 | 4.1 | – | – | – | –
B3 | 12 | 26 | 103 | 1500 | 1470 | 3430 | – | – | – | –
B4 | – | – | – | – | – | – | 332 | 210 | binds | –
B5 | – | – | – | – | – | – | 245 | 226 | binds | –
B6 | – | – | – | – | – | – | – | – | – | 0.13
B7 | – | – | – | – | – | – | – | – | – | 0.49

Source: patent US20200353078A1 (AstraZeneca / MedImmune, published 2020)
